Results taken from patent US20240301385, “DNA MODIFYING ENZYMES AND ACTIVE FRAGMENTS AND VARIANTS THEREOF AND METHODS OF USE” (LIFEEDIT THERAPEUTICS, INC., published 2024).

Target: T1, APG30128-L32-nAPG07433.1 (synthetic)
T1 chain: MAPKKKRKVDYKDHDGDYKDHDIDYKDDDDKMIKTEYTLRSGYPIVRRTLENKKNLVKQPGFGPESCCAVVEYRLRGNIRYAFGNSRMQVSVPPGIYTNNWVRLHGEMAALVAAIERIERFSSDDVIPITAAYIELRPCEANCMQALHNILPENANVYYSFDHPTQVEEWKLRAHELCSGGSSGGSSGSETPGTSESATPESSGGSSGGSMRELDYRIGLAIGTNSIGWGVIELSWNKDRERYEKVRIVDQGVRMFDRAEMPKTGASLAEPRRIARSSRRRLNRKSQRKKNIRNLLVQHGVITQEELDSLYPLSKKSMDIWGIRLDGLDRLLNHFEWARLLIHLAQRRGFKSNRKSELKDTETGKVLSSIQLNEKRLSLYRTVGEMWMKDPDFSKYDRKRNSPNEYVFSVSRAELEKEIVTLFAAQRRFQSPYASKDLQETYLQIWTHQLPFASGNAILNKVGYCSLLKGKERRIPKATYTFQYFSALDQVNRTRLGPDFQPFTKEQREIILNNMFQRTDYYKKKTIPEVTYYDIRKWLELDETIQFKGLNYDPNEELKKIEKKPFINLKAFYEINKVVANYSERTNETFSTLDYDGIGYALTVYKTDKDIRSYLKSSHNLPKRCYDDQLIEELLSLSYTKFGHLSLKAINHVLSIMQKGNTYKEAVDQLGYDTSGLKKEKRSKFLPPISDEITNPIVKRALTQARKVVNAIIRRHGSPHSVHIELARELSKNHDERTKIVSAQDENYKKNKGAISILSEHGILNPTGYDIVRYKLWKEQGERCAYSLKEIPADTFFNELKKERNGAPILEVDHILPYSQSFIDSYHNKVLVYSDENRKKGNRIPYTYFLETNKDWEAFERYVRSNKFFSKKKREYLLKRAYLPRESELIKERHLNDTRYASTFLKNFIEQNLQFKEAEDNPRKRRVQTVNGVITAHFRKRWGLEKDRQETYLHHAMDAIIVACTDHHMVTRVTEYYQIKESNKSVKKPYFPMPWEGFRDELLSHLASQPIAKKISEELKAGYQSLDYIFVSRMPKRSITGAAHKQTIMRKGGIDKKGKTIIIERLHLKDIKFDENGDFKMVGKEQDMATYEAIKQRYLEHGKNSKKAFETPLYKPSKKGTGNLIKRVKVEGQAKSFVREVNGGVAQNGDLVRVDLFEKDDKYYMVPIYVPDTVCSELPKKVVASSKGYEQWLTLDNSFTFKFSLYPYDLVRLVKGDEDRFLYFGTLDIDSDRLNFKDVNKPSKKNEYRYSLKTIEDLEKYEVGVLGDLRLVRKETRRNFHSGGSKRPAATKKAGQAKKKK
Assay: cell_activity; HEK293FT; PAM SEQ 152
Conditions: tags: SV40 NLS, 3xFLAG N-term; nucleoplasmin NLS C-term
Outline: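 Editing read out by next-generation sequencing (MiSeq 2×250) of PCR amplicons spanning the target site, analysed for INDELs or % cytosine conversion per position (position 1 nearest PAM).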

B1: SGN000930 sgRNA ; SGN000930 target (ssRNA ; dsDNA)
RNA: GAACAACUCAAAUGGAAAUGAAUAUGUCAUAGUUCCAUGAAAGCCAAAAGUGGCUUUGAUGUUUCUAUGAUAAGGGUUUCGGCCCGUGGCGUCGGGGAUCGCCUGCCCAUUCCGAUGGGCUUCUCCCCAUUUAUU
DNA 1: GAACAACTCAAATGGAAATGAATAT
DNA 2: ATATTCATTTCCATTTGAGTTGTTC
**Q.** B1 was tested. Which activity did it give?
**A.** 2.03 % mutated reads
